Measurements taken from PMC10219652, “Insights into cargo sorting by SNX32 and its role in neurite outgrowth” (eLife, 2023).

Columns and labels:
GFP-SNX4 [1] = target: GFP-SNX4 (UniProt O95219); assay: co-IP; GBP-IP as above with lysates of HeLa cells transiently transfected with wild-type or mutant GFP-SNX4 and HA-SNX32 (legend of Figure 1H); values are the ratio of HA to GFP band intensity
GFP-SNX4, O95219 = target: T1, GFP-SNX4, O95219; assay: co-IP; GFP nanobody-based immunoprecipitation (GBP-IP): GST-GBP on glutathione sepharose beads incubated 2 hr at 4°C with extracts of HEK293T cells overexpressing GFP- and HA-tagged SNX proteins; washed with 1x PBS; immunoblot with anti-HA and anti-GFP; values are the ratio of HA to GFP band intensity; details: remark: other sources report otherwise
T1 chain: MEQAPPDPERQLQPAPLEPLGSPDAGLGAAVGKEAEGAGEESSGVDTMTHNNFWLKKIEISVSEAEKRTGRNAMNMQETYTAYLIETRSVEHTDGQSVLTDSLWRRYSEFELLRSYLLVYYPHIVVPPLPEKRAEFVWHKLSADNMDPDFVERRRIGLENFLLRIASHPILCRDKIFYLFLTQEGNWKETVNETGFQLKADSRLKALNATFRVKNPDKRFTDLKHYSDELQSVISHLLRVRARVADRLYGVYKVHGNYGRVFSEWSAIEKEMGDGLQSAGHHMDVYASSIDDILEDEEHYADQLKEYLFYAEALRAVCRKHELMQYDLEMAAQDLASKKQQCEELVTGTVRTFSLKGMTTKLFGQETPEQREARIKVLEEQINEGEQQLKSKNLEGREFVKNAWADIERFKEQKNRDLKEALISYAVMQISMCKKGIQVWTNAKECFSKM

GFP-SNX8 = target: T2, GFP-SNX8 (UniProt Q9Y5X2 1-465); assay: as above; details: partners not purified
T2 construct: Sorting nexin 8 (SNX8); the plasmid is not described in the methods; source: HEK293T, transiently transfected, in lysate
T2 sequence (looked up): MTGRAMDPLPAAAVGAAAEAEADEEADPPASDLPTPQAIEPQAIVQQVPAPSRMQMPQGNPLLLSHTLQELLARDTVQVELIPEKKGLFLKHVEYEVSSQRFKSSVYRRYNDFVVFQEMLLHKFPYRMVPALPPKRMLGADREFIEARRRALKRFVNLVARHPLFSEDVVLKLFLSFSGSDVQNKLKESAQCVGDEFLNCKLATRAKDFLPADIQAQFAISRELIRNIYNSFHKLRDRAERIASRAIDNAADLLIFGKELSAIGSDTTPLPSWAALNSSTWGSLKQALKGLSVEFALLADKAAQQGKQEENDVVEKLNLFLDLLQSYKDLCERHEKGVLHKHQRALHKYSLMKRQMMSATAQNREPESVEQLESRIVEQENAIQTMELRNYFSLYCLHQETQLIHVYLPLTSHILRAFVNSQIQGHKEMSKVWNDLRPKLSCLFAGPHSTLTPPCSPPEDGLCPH

GFP-SNX32 = target: T3, GFP-SNX32 (UniProt Q86XE0-1 1-403); assay: as above; details: partners not purified
T3 construct: Sorting nexin 32 (SNX32, SNX6b); pEGFP C1 SNX32 FL, gift of P. J. Cullen; also called GFP-SNX32 WT; pEGFP C1 SNX32 FL; source: HEK293T or HeLa, transiently transfected, in lysate
T3 sequence (looked up): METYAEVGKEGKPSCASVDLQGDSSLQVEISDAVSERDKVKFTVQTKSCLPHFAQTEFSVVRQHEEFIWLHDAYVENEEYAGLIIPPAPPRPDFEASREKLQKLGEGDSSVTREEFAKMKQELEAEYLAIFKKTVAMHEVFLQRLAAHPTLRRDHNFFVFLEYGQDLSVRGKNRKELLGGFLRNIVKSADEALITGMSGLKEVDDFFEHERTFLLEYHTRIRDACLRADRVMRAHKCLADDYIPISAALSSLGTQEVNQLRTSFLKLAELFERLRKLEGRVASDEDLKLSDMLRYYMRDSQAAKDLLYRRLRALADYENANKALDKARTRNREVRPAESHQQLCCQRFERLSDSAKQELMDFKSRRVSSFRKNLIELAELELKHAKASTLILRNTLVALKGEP

GFP-SNX1 = target: T4, GFP-SNX1 (UniProt Q13596-1 1-522); assay: as above; details: partners not purified
T4 construct: Sorting nexin 1 (SNX1); pEGFP C1 SNX1, gift of P. J. Cullen; also called GFP-SNX1 WT; pEGFP C1 SNX1

GFP-SNX4 [2] = target: T5, GFP-SNX4 (UniProt O95219-1 1-450); assay: co-IP; GBP-IP as above with lysates of HeLa cells transiently transfected with wild-type or mutant GFP-SNX4 and HA-SNX32 (legend of Figure 1H); values are the ratio of HA to GFP band intensity; details: partners not purified
T5 construct: Sorting nexin 4 (SNX4); pEGFP C1 SNX4, gift of P. J. Cullen; also called GFP-SNX4 WT; pEGFP C1 SNX4; source: HEK293T or HeLa, transiently transfected, in lysate
T5 sequence (looked up): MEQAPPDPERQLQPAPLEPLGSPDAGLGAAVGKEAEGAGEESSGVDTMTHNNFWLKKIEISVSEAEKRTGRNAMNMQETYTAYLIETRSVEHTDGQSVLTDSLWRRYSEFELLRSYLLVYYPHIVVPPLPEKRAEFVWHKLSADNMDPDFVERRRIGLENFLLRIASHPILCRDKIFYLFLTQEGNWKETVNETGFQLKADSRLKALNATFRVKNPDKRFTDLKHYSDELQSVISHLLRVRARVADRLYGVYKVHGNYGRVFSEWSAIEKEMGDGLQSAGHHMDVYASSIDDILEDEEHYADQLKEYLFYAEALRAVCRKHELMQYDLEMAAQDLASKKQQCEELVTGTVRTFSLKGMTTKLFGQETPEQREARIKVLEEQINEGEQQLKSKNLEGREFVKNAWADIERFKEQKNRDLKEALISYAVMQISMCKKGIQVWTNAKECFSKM

T4 sequence (Q13596 whole entry): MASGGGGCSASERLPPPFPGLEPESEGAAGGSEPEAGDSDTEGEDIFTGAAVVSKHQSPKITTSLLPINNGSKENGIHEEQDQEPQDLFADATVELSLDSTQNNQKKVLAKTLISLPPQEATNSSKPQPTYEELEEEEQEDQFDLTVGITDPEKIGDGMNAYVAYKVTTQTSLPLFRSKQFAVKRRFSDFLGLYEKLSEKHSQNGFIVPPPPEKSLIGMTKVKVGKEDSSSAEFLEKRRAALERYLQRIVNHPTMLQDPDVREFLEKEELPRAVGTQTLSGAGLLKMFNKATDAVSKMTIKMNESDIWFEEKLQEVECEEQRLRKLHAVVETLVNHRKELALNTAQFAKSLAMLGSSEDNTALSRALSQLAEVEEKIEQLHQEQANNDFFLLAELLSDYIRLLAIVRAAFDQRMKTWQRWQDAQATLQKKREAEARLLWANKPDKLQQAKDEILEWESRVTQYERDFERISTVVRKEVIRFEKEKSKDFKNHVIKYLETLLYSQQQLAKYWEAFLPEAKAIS

Molecule: HA-SNX32 A226E (from UniProt Q86XE0-1 1-403) (natural protein)
- ratio of HA to GFP band intensity (GFP-SNX4 [1]): 0.65

B1: HA-SNX32 full-length (FL) (natural protein, UniProt Q86XE0-1 1-403, looked up)
chain: METYAEVGKEGKPSCASVDLQGDSSLQVEISDAVSERDKVKFTVQTKSCLPHFAQTEFSVVRQHEEFIWLHDAYVENEEYAGLIIPPAPPRPDFEASREKLQKLGEGDSSVTREEFAKMKQELEAEYLAIFKKTVAMHEVFLQRLAAHPTLRRDHNFFVFLEYGQDLSVRGKNRKELLGGFLRNIVKSADEALITGMSGLKEVDDFFEHERTFLLEYHTRIRDACLRADRVMRAHKCLADDYIPISAALSSLGTQEVNQLRTSFLKLAELFERLRKLEGRVASDEDLKLSDMLRYYMRDSQAAKDLLYRRLRALADYENANKALDKARTRNREVRPAESHQQLCCQRFERLSDSAKQELMDFKSRRVSSFRKNLIELAELELKHAKASTLILRNTLVALKGEP
notes: Sorting nexin 32 (SNX32, SNX6b); pcDNA3 HA N(I)-SNX32 FL subcloned from pEGFP C1-SNX32FL; also called HA-SNX32FL; HA-SNX32 WT; source: HEK293T or HeLa, transiently transfected, in lysate
- ratio of HA to GFP band intensity (GFP-SNX4, O95219): 0.92
- ratio of HA to GFP band intensity (GFP-SNX8): 0.62
- ratio of HA to GFP band intensity (GFP-SNX32): 0.85
- ratio of HA to GFP band intensity (GFP-SNX1): 0.98

B2: HA-SNX32 R366E (natural protein, UniProt Q86XE0-1 1-403, looked up)
chain: METYAEVGKEGKPSCASVDLQGDSSLQVEISDAVSERDKVKFTVQTKSCLPHFAQTEFSVVRQHEEFIWLHDAYVENEEYAGLIIPPAPPRPDFEASREKLQKLGEGDSSVTREEFAKMKQELEAEYLAIFKKTVAMHEVFLQRLAAHPTLRRDHNFFVFLEYGQDLSVRGKNRKELLGGFLRNIVKSADEALITGMSGLKEVDDFFEHERTFLLEYHTRIRDACLRADRVMRAHKCLADDYIPISAALSSLGTQEVNQLRTSFLKLAELFERLRKLEGRVASDEDLKLSDMLRYYMRDSQAAKDLLYRRLRALADYENANKALDKARTRNREVRPAESHQQLCCQRFERLSDSAKQELMDFKSREVSSFRKNLIELAELELKHAKASTLILRNTLVALKGEP
notes: Sorting nexin 32 (SNX32) with a point mutation, made by site-directed mutagenesis of HA-tagged SNX32; also called pcDNA3 HA N(I)-SNX32 R366E; source: HeLa, transiently transfected, in lysate
- ratio of HA to GFP band intensity (GFP-SNX4 [2]): 0.49

B3: HA-SNX32 R220E (natural protein, UniProt Q86XE0-1 1-403, looked up)
chain: METYAEVGKEGKPSCASVDLQGDSSLQVEISDAVSERDKVKFTVQTKSCLPHFAQTEFSVVRQHEEFIWLHDAYVENEEYAGLIIPPAPPRPDFEASREKLQKLGEGDSSVTREEFAKMKQELEAEYLAIFKKTVAMHEVFLQRLAAHPTLRRDHNFFVFLEYGQDLSVRGKNRKELLGGFLRNIVKSADEALITGMSGLKEVDDFFEHERTFLLEYHTEIRDACLRADRVMRAHKCLADDYIPISAALSSLGTQEVNQLRTSFLKLAELFERLRKLEGRVASDEDLKLSDMLRYYMRDSQAAKDLLYRRLRALADYENANKALDKARTRNREVRPAESHQQLCCQRFERLSDSAKQELMDFKSRRVSSFRKNLIELAELELKHAKASTLILRNTLVALKGEP
notes: Sorting nexin 32 (SNX32) with a point mutation, made by site-directed mutagenesis of HA-tagged SNX32; also called pcDNA3 HA N(I)-SNX32 R220E; source: HeLa, transiently transfected, in lysate
- ratio of HA to GFP band intensity (GFP-SNX4 [2]): 1.02

B4: HA-SNX32 E256R (natural protein, UniProt Q86XE0-1 1-403, looked up)
chain: METYAEVGKEGKPSCASVDLQGDSSLQVEISDAVSERDKVKFTVQTKSCLPHFAQTEFSVVRQHEEFIWLHDAYVENEEYAGLIIPPAPPRPDFEASREKLQKLGEGDSSVTREEFAKMKQELEAEYLAIFKKTVAMHEVFLQRLAAHPTLRRDHNFFVFLEYGQDLSVRGKNRKELLGGFLRNIVKSADEALITGMSGLKEVDDFFEHERTFLLEYHTRIRDACLRADRVMRAHKCLADDYIPISAALSSLGTQRVNQLRTSFLKLAELFERLRKLEGRVASDEDLKLSDMLRYYMRDSQAAKDLLYRRLRALADYENANKALDKARTRNREVRPAESHQQLCCQRFERLSDSAKQELMDFKSRRVSSFRKNLIELAELELKHAKASTLILRNTLVALKGEP
notes: Sorting nexin 32 (SNX32) with a point mutation, made by site-directed mutagenesis of HA-tagged SNX32; also called pcDNA3 HA N(I)-SNX32E256R; source: HeLa, transiently transfected, in lysate
- ratio of HA to GFP band intensity (GFP-SNX4 [2]): 0.66

B5: HA-SNX32 Q259R (natural protein, UniProt Q86XE0-1 1-403, looked up)
chain: METYAEVGKEGKPSCASVDLQGDSSLQVEISDAVSERDKVKFTVQTKSCLPHFAQTEFSVVRQHEEFIWLHDAYVENEEYAGLIIPPAPPRPDFEASREKLQKLGEGDSSVTREEFAKMKQELEAEYLAIFKKTVAMHEVFLQRLAAHPTLRRDHNFFVFLEYGQDLSVRGKNRKELLGGFLRNIVKSADEALITGMSGLKEVDDFFEHERTFLLEYHTRIRDACLRADRVMRAHKCLADDYIPISAALSSLGTQEVNRLRTSFLKLAELFERLRKLEGRVASDEDLKLSDMLRYYMRDSQAAKDLLYRRLRALADYENANKALDKARTRNREVRPAESHQQLCCQRFERLSDSAKQELMDFKSRRVSSFRKNLIELAELELKHAKASTLILRNTLVALKGEP
notes: Sorting nexin 32 (SNX32) with a point mutation, made by site-directed mutagenesis of HA-tagged SNX32; also called pcDNA3 HA N(I)-SNX32 Q259R; source: HeLa, transiently transfected, in lysate
- ratio of HA to GFP band intensity (GFP-SNX4 [2]): 0.75
